Laboratory results as given in US20260226161A1 (EXELIXIS, published 2026).
Positions count from the first letter of the chain named. Each block holds one binder with its values, some of them ahead of it.

Experiments:
[1] = molecular target: T1, biotinylated cyno NKG2A/CD94 heterodimer (extracellular domains) (cynomolgus, UniProt Q9MZJ3 94-233; Q9MZK9 32-179, biotinylated); test: BLI (Octet), bivalent
T1 construct: also called Cynomolgus NKG2A protein; not shown: fusion partner/tags ('similar approach' to the human proteins); fusion partner ('similar approach')
T1 sequence (Q9MZJ3 other isoform, or with tags, fused parts or gaps, chain 1 of 2): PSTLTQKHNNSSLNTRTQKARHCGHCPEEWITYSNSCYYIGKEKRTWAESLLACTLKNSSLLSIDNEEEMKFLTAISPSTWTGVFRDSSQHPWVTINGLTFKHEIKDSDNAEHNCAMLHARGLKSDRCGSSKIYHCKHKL
T1 sequence (Q9MZK9 32-179, chain 2 of 2): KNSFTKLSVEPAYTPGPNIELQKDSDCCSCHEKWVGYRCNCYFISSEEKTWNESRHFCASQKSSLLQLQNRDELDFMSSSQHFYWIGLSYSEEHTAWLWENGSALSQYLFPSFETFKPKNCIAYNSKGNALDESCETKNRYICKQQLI
Procedure: (§1) A total of 58 binders formatted as IgG antibodies from phage display as described in Example 1 were further tested for binding.
(§2) The antibodies were evaluated for binding to (1) human NKG2A, (2) human NKG2C, and (3) cyno NKG2A. Bivalent interaction of binders to biotinylated human NKG2A (see Example 1), biotinylated human NKG2C/CD94 heterodimer, or biotinylated cyno NKG2A/CD94 heterodimer immobilized on a streptavidin biosensor was monitored using Octet (Pall ForteBio) instrument. For these assays, human NKG2C/CD94 and cyno NKG2A/CD94 were prepared using the procedure as described in Example 1. Similarly, the extracellular domain of human NKG2C was expressed and purified from HEK293 cells as heterodimer with CD94 as Fc fusions. The extracellular domain of NKG2C used for selection campaigns encompassed amino acid sequence Ile94-Leu231 (Accession No. P26717-1; SEQ ID NO: 75). The gene encoding CD94 (Accession No. Q13241-1, SEQ ID NO:76), Lys33-Ile159 was synthesized from IDT and cloned into mammalian expression vector as an N-terminal Fc (hole) fusion. Plasmids encoding NKG2C-Fc fusion and CD94-Fc fusion were co-transfected into HEK293T cells using standard procedures. NKG2C/CD94 heterodimer was purified from cell supernatant using Protein A resins. Similar approach was used to obtain Cynomolgus NKG2A protein. Specifically, extracellular domain of Cynomolgus NKG2A contained amino acid Pro 94-Leu 233. […] Extracellular domain of Cynomolgus CD94 contained amino acid residues Lys 33-Ile 179 (Accession No. Q68VD4-1; SEQ ID NO: 78).

[2] = molecular target: T2, biotinylated human NKG2C/CD94 heterodimer (extracellular domains, Fc fusions) (human, UniProt P26717 94-231; Q13241 32-179, biotinylated); test: BLI (Octet), bivalent
T2 construct: not shown: N-terminal Fc (hole)
T2 sequence (P26717 other isoform, or with tags, fused parts or gaps, chain 1 of 2): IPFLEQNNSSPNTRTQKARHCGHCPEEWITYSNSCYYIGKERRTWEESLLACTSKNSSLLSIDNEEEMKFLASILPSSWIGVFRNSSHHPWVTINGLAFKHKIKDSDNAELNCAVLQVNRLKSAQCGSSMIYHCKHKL
T2 sequence (Q13241 32-179, chain 2 of 2): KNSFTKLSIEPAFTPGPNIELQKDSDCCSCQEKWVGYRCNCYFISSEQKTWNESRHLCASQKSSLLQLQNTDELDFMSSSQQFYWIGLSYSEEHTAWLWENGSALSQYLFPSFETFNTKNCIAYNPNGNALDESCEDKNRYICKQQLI
Procedure: as §1, §2

[3] = molecular target: T3, NKG2A expressed on KHYG-1 cells (endogenous) (human, UniProt P26715 1-233; Q13241 1-179); test: flow cytometry on KHYG-1 cells expressing endogenous NKG2A
T3 construct: whole, on cells; Surface NKG2A copy number of approximately 10-20K; also called KHYG-1 cells expressing endogenous NKG2A; NKG2A-expressing cells
T3 sequence (P26715 whole entry, chain 1 of 2): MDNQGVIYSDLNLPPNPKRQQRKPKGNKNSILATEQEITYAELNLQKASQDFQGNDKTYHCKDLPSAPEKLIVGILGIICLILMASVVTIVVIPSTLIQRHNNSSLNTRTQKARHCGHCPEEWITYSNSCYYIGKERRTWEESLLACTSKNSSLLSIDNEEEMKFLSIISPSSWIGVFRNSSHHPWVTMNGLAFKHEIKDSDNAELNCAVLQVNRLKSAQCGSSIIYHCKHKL
T3 sequence (Q13241 whole entry, chain 2 of 2): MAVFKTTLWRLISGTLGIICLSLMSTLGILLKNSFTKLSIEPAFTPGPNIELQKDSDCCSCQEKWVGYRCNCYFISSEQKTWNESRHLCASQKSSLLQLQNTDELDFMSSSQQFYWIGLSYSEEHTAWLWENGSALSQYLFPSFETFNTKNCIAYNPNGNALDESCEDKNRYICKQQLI
Procedure: Antibodies that were selected for binding to NKG2A, for example, such as those described in Examples 1 and 2, were evaluated for binding to cells that express NKG2A.
Cells were harvested at 70-90% confluence on the day of the assay. Cells were collected by centrifugation at 200×g for 5 minutes and media was removed. Cells were resuspended at 2×10⁶ cells per mL in cold PBS. […] 50 μL per well of the antibody dilution was plated in a 96 well V-bottom plate (Costar 3897). 50 μL per well of cell suspension was added. Plates were placed at 4° C. for 45-60 minutes.

[4] = molecular target: T2, biotinylated human NKG2C/CD94 …; test: BLI (Octet), summary of the examples
Procedure: The antibodies were evaluated for binding to (1) human NKG2A, (2) human NKG2C, and (3) cyno NKG2A. Bivalent interaction of binders to biotinylated human NKG2A (see Example 1), biotinylated human NKG2C/CD94 heterodimer, or biotinylated cyno NKG2A/CD94 heterodimer immobilized on a streptavidin biosensor was monitored using Octet (Pall ForteBio) instrument. For these assays, human NKG2C/CD94 and cyno NKG2A/CD94 were prepared using the procedure as described in Example 1. Similarly, the extracellular domain of human NKG2C was expressed and purified from HEK293 cells as heterodimer with CD94 as Fc fusions. The extracellular domain of NKG2C used for selection campaigns encompassed amino acid sequence Ile94-Leu231 (Accession No. P26717-1; SEQ ID NO: 75). The gene encoding CD94 (Accession No. Q13241-1, SEQ ID NO:76), Lys33-Ile159 was synthesized from IDT and cloned into mammalian expression vector as an N-terminal Fc (hole) fusion. Plasmids encoding NKG2C-Fc fusion and CD94-Fc fusion were co-transfected into HEK293T cells using standard procedures. NKG2C/CD94 heterodimer was purified from cell supernatant using Protein A resins. Similar approach was used to obtain Cynomolgus NKG2A protein. Specifically, extracellular domain of Cynomolgus NKG2A contained amino acid Pro 94-Leu 233. […]

[5] = molecular target: T4, cynomolgus NKG2A/CD94 (soluble antigen of the equilibrium assay) (cynomolgus, UniProt Q68VD2 94-233; Q68VD4 32-179, Biotinylated in the Octet assays of Example 2; state in the SPR equilibrium assay not seen.); test: SPR equilibrium response, Langmuir isotherm; antibody on chip, soluble antigen
T4 construct: also called Cyno NKG2A/CD94; copies: 1 + 1
T4 sequence (NKG2A, as listed by the source limits assumed, chain 1 of 2): as the sequence (Q9MZJ3 other isoform, or with tags, fused parts or gaps, chain 1 of 2) above
T4 sequence (CD94, as listed by the source limits assumed, chain 2 of 2): as the sequence (Q9MZK9 32-179, chain 2 of 2) above
Procedure: In addition, a method using an equilibrium approach was performed. Kd determinations for cynomolgus NKG2A/CD94 were performed by measuring the signal response at equilibrium. […] The equilibrium response signals and corresponding antigen concentrations were then input into a Langmuir binding isotherm model, and the Kd was determined through nonlinear regression. Averages and standard deviations were calculated from 24 replicate chip locations for each molecule.

[6] = molecular target: T3, NKG2A expressed on KHYG-1 cells …; test: flow cytometry competition; inhibition of HLA-E tetramer binding to KHYG-1 cells; first of the two EC50 values printed for P12×A2; the patent does not say what tells them apart
Procedure: (§3) 15 μL per well of binder dilution at 2× concentration was plated in a 96-well plate (Costar 3897). 15 μL per well of cell suspension at 5×10⁶ cells per mL was added. Plates were placed at 4° C. for 30 minutes. Following the incubation, 5 μL per well of Fc block (BD Pharmingen Cat #564220) was added at a final concentration of 500 ng per well. Plates were placed at 4° C. for 10 minutes. […] Plates were placed at 4° C. for 1 hour. Following the incubation, 100 μL per well of PBS was added and plate was centrifuged at 400×g for 7 minutes. Supernatant was removed by flicking the plate. Cells were resuspended in 50 μL per well of PBS and analyzed by flow cytometry (Intellicyt).

[7] = molecular target: T5, Human PD-L1 with His tag (AcroBiosystems) (human, UniProt Q9NZQ7 19-238); test: SPR (Carterra), antibody on chip, soluble antigen
T5 construct: Bought protein; also called hPD-L1; not shown: His tag
T5 sequence (Q9NZQ7 19-238 limits assumed): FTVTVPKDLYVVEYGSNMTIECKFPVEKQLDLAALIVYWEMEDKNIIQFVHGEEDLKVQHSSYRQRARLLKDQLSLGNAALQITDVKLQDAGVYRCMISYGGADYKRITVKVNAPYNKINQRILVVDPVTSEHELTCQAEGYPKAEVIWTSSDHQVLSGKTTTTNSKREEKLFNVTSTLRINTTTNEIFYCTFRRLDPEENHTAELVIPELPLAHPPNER

[8] = molecular target: T6, Human NKG2A & CD94 with mouse IgG2a Fc tag (AcroBiosystems) (human, UniProt P26715 94-233; Q13241 32-179, limits assumed); test: SPR (Carterra), antibody on chip, soluble antigen
T6 construct: Bought soluble antigen of the Carterra assay; also called hNKG2A; not shown: mouse IgG2a Fc tag
T6 sequence (P26715 94-233 limits assumed, chain 1 of 2): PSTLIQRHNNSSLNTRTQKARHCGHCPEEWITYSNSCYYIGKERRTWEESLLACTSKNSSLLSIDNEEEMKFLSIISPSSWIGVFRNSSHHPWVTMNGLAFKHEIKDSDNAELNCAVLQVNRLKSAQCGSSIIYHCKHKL
T6 sequence (Q13241 32-179 limits assumed, chain 2 of 2): as the sequence (Q13241 32-179, chain 2 of 2) above

Cyno PD-L1 = Cyno PD-L1 (cyno, UniProt G7PSE7 19-238); test: SPR (Carterra), antibody on chip, soluble antigen
Cyno PD-L1, sequence (G7PSE7 entry or part of it limits assumed): as the sequence (Q9NZQ7 19-238 limits assumed) above, with A33T, A34S, S62N, R68Q, Q82R, F173L, T185A, T192I, H215L counted along it

[9] = molecular target: T3, NKG2A expressed on KHYG-1 cells …; test: flow cytometry competition; inhibition of HLA-E tetramer binding to KHYG-1 cells; second of the two EC50 values printed for P12×A2; the patent does not say what tells them apart
Procedure: as §3

PD-L1 expressed on cells [10] = molecular target: T7, PD-L1 expressed on cells (UniProt Q9NZQ7 19-290, limits assumed); test: flow cytometry on MC/CAR cells expressing PD-L1
T7 construct: whole, on cells; also called MC/CAR cells expressing PD-L1; PD-L1+MDA-MB-231 cells
T7 sequence (Q9NZQ7 19-290 limits assumed): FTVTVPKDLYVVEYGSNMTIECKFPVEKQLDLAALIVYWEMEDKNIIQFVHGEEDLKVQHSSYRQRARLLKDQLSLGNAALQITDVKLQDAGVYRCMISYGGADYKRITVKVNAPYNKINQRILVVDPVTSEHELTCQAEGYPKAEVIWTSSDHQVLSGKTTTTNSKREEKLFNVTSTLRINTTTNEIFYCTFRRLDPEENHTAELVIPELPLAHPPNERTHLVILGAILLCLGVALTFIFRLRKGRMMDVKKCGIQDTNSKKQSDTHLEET
Procedure: (§4) Cells were collected by centrifugation at 400×g for 7 minutes and primary antibody was removed. 50 μL per well of AF488 goat anti human IgG Fab (Jackson Immuno Research 109-547-003) at 1:100 dilution was added. Plates were placed at 4° C. for 30 minutes.
(§5) Cells were collected by centrifugation at 400×g for 7 minutes and secondary antibody was removed. Cells were resuspended in 50 μL per well of PBS and analyzed by flow cytometry. Binding curves were calculated using the mean fluorescence intensity (MFI) of the FITC fluorescence signal on the cells. Bispecific antibody binding was evaluated in KHYG-1 cells expressing endogenous NKG2A and in MC/CAR cells expressing PD-L1. Cells were harvested and assayed for binding as described above.

[11] = molecular target: T3, NKG2A expressed on KHYG-1 cells …; test: flow cytometry on KHYG-1 cells expressing endogenous NKG2A; remark: listed apart in the source
Procedure: as §4, §5

PD-L1 expressed on cells [12] = molecular target: T7, PD-L1 expressed on cells; test: cell-based or functional assay

- binding result [1]: no binding
- binding result [2]: no binding
- EC50 [3]: 4.35 nM
B1: Antibody Clone A11 (antibody, human IgG1, kappa, V domains shown)
VH: EVQLVESGGGLVQPGGSLRLSCAASGFTFSWYYIHWVRQAPGKGLEWVAVIDPISSYTYYADSVKGRFTISADTSKNTAYLQMNSLRAEDTAVYYCARGFDRAMDYWGQGTLVTVSS
VL: DIQMTQSPSSLSASVGDRVTITCRASKSVSSALAWYQQKPGKAPKLLIYVGSSRYSGVPSRFSGSRSGTDFTLTISSLQPEDFATYYCQQYYSSPYTFGQGTKVEIKR

- binding result [4]: no binding
- EC50 [3]: 0.303 nM
B2: Antibody Clone A3 (antibody, human IgG1, kappa, V domains shown)
VH: EVQLVESGGGLVQPGGSLRLSCAASGFTFSSYYIHWVRQAPGKGLEWVASISPYDGYTDYADSVKGRFTISADTSKNTAYLQMNSLRAEDTAVYYCARSSDFSPWTSSGGMDYWGQGTLVTVSS
VL: B1 VL with K27Q, L33V, V50S, G51A, R54L, Y92G, P95L, Y96R

- binding result [4]: no binding
- binding result [1]: no binding
- EC50 [3]: 37.5 nM
B3: Antibody Clone A2 (antibody, human IgG1, kappa, V domains shown)
VH: B2 VH with I51Y, S52V, Y54E, S103I
VL: B1 VL with K27Q, S31R, L33V, V50S, G51A, R54L, Y55H, Y92G, P95A, Y96R

- Kd [5]: 42 nM
- EC50 [6]: 21 nM
- Kd [7]: 0.13 nM
- koff [7]: 7e-05 s⁻¹
- kon [7]: 530000 M⁻¹ s⁻¹
- Kd [8]: 0.21 nM
- koff [8]: 8e-05 s⁻¹
- kon [8]: 360000 M⁻¹ s⁻¹
- Kd (Cyno PD-L1): 0.1 nM
- koff (Cyno PD-L1): 6e-05 s⁻¹
- kon (Cyno PD-L1): 560000 M⁻¹ s⁻¹
- EC50 [9]: 65.2 nM
- EC50 (PD-L1 expressed on cells [10]): 55.9 nM
- EC50 [11]: 4.66 nM
- IC50 of inhibiting PD-1/PD-L1 interaction in PD-L1+MDA-MB-231 cells (PD-1/PD-L1 Signaling Bioassay, chemiluminescent signal) (PD-L1 expressed on cells [12]): 0.408 nM
B4: P12 × A2 (1 × 1 format) (bispecific antibody)
heavy 1: DIQMTQSPSSLSASVGDRVTITCRASQSVSSAVAWYQQKPGKAPKLLIYSASSLYSGVPSRFSGSRSGTDFTLTISSLQPEDFATYYCQQFMLEPITFGQGTKVEIKGQPREPQVCTLPPSRDELTKNQVSLTCLVRGFYPSDIAVEWESNGQPENNYKTTPPVLDSDGSFFLYSKLTVDKSRWQQGNVFSCSVMHEALHNHYTQKSLSLSPGKDKTHTCPPCPAPEAAGGPSVFLFPPKPKDTLMISRTPEVTCVVVDVSHEDPEVKFNWYVDGVEVHNAKTKPREEQYNSTYRVVSVLTVLHQDWLNGKEYKCKVSNKALKAPIEKTISKAKGQPREPQVYTLPPSREEMTKNQVSLSCAVKGFYPSDIAVEWESNGQPENNYKTTPPVLDSDGSFFLVSKLTVDKSRWQQGNVFSCSVMHEALHNHYTQKSLSLSPGK
light 1: EVQLVESGGGLVQPGGSLRLSCAASGFTFSSYYIHWVRQAPGKGLEWVATINSRGGFTLYADSVKGRFTISADTSKNTAYLQMNSLRAEDTAVYYCARGYTLTPVLDYWGQGTLVTVSSAQPREPQVYTLPPCRDWLTKNQVSLTCLVKGFYPSDIAVEWESNGQPENNYKTTPPVLDSDGSFFLYSKLTVDKSRWQQGNVFSCSVMHEALHNHYTQKSLSLSPGK
heavy 2: not shown
light 2: EVQLVESGGGLVQPGGSLRLSCAASGFTFSSYYIHWVRQAPGKGLEWVASYVPEDGYTDYADSVKGRFTISADTSKNTAYLQMNSLRAEDTAVYYCARSSDFIPWTSSGGMDYWGQGTLVTVSSASTKGPSVFPLAPSSKSTSGGTAALGCLVKDYFPEPVTVSWNSGALTSGVHTFPAVLQSSGLYSLSSVVTVPSSSLGTQTYICNVNHKPSNTKVDKKVEPKSC
notes: One PD-L1 site, one NKG2A site; also called P12×A2, sFc; P12 × A2 sFc
